Data from patent US10429300B2, “Surface plasmon resonance approach to monitor protein-ligand interactions” (The Johns Hopkins University, priority 2015, dated 2019).

Tests used:
[1] = tested on: rNav1.2a/Kv2.1 VSD II paddle chimera; experiment: Two-electrode voltage-clamp, rNav1.2a/Kv2.1 VSD II paddle chimera in Xenopus oocytes; format: cell-based, rat
Description: The DNA sequence of rat (r)Nav1.2a (provided by A. Goldin, University of California, Irvine, Irvine, Calif.), rKv2.1 (provided by K. J. Swartz, National Institutes of Health), and the rNav1.2a/Kv2.1 VSD II or IV chimera was confirmed by automated DNA sequencing, and cRNA was synthesized using T7 polymerase (mMessage mMachine™ kit; Life Technologies) after linearizing the DNA with appropriate restriction enzymes. Channels were expressed in Xenopus oocytes (obtained from Xenopus 1) and studied after a 1-d incubation after cRNA injection (incubated at 17° C. in 96 mM NaCl, 2 mM KCl, 5 mM HEPES, 1 mM MgCl2, 1.8 mM CaCl2, and 50 μg/ml gentamycin, pH 7.6 with NaOH) using two-electrode voltage-clamp recording techniques (OC-725C; Warner Instruments) with a 150-μl recording chamber. Data were filtered at 4 kHz and digitized at 20 kHz using pClamp™ 10 software (Molecular Devices). Microelectrode resistances were 0.5-1.5 MΩ when filled with 3 M KCl. For Kv chimera channel experiments, the external recording solution contained (mM): 50 KCl, 50 NaCl, 5 HEPES, 1 MgCl2, and 0.3 CaCl2, pH 7.6 with NaOH. For rNav1.2a experiments, the external recording solution contained (mM): 100 NaCl, 5 HEPES, 1 MgCl2, and 1.8 CaCl2, pH 7.6 with NaOH. All experiments were performed at ˜22° C. Leak and background conductances, identified by blocking the channel with agitoxin-2 (provided by K. J. Swartz), have been subtracted for all of the Kv channel currents shown. […]. After the addition of the toxin to the recording chamber, the equilibration between the toxin and the channel was monitored using weak depolarizations elicited at 5- or 10-s (R1629A/L1630A mutant) intervals. Voltage-activation relationships were obtained by measuring tail currents for Kv channels or steady-state currents and calculating conductance for Nav channels, and a single Boltzmann function was fitted to the data according to I/Imax=[1c+cexp(−zF(Vc−cV1/2)/RT)]^−1, where I/Imax is the normalized tail-current amplitude, z is the equivalent charge, V1/2 is the half-activation voltage, F is Faraday's constant, R is the gas constant, and T is temperature in kelvin. For all channels, voltage-activation relationships were recorded in the absence and presence of toxin. The ratio of currents (I/I0) recorded in the presence (I) and absence (I0) of toxin was calculated for voltages typically ranging from −140 to 10 cmV, depending on the construct. […] The apparent equilibrium dissociation constant (apparent KD) for Kv channels was calculated according to KD=((1/(1c−cFu^1/4))c−c1)[toxin], assuming four independent toxin-binding sites per channel. Results are given as mean±SEM unless noted otherwise. Offline data analysis was performed using Clampfit 10™ (Molecular Devices), Origin 8.0™ (OriginLab), and Excel™ (Microsoft). […]

[2] = molecular target: T1, rNav1.2a VSD IV paddle peptide (R1629A/L1630A, SEQ ID NO: 4) (Rattus norvegicus, UniProt P04775, L1630A/R1629A); experiment: SPR on immobilized rNav1.2a VSD IV paddle peptide; format: binding
T1 construct: purchased ProteoGenix; host or cells: chemical synthesis (Fmoc solid phase)
T1 sequence (P04775 1605-1636 R1629A/L1630A): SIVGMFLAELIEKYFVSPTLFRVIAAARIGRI

[3] = heterogeneous ligand model, 15-2,000 nM toxin, 50 fmol peptide, n=3, mean±SD
[4] = heterogeneous ligand model, 50 fmol peptide
[5] = heterogeneous ligand model, 50 fmol peptide, n=3, mean±SD

Chain of rNav1.2a/Kv2.1 VSD II paddle chimera (P04775 832-856 limits assumed, stated change not applied): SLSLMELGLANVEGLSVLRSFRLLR

B1: AaHII: Nav channel-selective α-scorpion toxin from Androctonus australis hector; model toxin (protein)
chain: VKDGYIVDDVNCTYFCGRNAYCNEECTKLKGESGYCQWASPYGNACYCYKLPDHVRTKGPGRCH
interaction with VSD II paddle chimera [1]: no interaction was observed | association rate ka1 [2, 3]: 2330 ± 910 M⁻¹ s⁻¹ | association rate ka2 [2, 3]: 38200 ± 4700 M⁻¹ s⁻¹ | dissociation rate kd1 [2, 3]: 0.000979 ± 0.00014 s⁻¹ | dissociation rate kd2 [2, 3]: 0.0281 ± 0.0058 s⁻¹ | RUmax1 [2, 4]: 135 | RUmax2 [2, 4]: 23 | high affinity KD1 (kd1/ka1) [2, 5]: 479 ± 241 nM | lower affinity KD2 (kd2/ka2) [2, 5]: 747 ± 203 nM

B2: CssIV: β-scorpion toxin from Centruroides suffusus suffusus (protein)
chain: KEGYLVNSYTGCKFECFKLGDNDYCLRECRQQYGKGSGGYCYAFGCWCTHLYEQAVVWPLPNKTCN
concentration required to begin inhibiting the chimera [1]: 1 µM | depolarizing shift in V1/2 ([1]; 1 μM toxin, Boltzmann fit, n=3): ~14 mV | V1/2 in the presence of toxin ([1]; 1 μM toxin, control 33±2 mV): 47±1 mV | SPR binding to VSD IV paddle peptide ([2]; 100 nM toxin, 500 fmol peptide): no RUs could be detected
